Consider 18 compounds from PMC8763920, “Unprotected peptide macrocyclization and stapling via a fluorine-thiol displacement reaction” (Nature Communications, 2022).

Structures are written as SMILES. *1 amine or outer side, *2 acyl side, *3 side chain or, on linkers, in order; H or OH if unused. Where a SMILES comes first, the peptide text is derived from it. Bridges are numbered along the chain shown (N, C = ends). [ ]: non-standard residue; d: D form. Benzene(1,3-(CH2SCH2CO)2) = O=C(CSCc1cccc(CSCC(=O)[*:2])c1)[*:1]; X3 = O=C(CSCCCCCCCCSCC(=O)[*:2])[*:1]; X2 = O=C(CSCCCCCCCSCC(=O)[*:2])[*:1]; X1 = O=C(CSCCCCCCSCC(=O)[*:2])[*:1]; X4 = O=C(CSCCCCCSCC(=O)[*:2])[*:1]; dDap = NC[C@@H](N)C(=O)O; Dap = NC[C@H](N)C(=O)O

The data set in a line: circular dichroism. As to conditions: water; pH ns; 25 °C; 70 uM. On the technique in general: Circular dichroism is the unequal absorption of left and right circularly polarised light.
As for `CC(=O)N[C@@H](CCC(N)=O)C(=O)N[C@@H](CO)C(=O)N[C@@H](CCC(N)=O)C(=O)N[C@@H](CCC(N)=O)C(=O)N[C@H](C(=O)N[C@@H](Cc1ccccc1)C(=O)N[C@H]1CNC(=O)CSCc2ccc(cc2)-c2ccc(cc2)CSCC(=O)NC[C@H](C(=O)N[C@@H](CCC(N)=O)C(=O)N[C@@H](CC(N)=O)C(N)=O)NC(=O)[C@H](CC(C)C)NC(=O)[C@H](CC(C)C)NC(=O)[C@H](CCCNC(=N)N)NC(=O)[C@H](Cc2c[nH]c3ccccc23)NC(=O)[C@H](CC(C)C)NC(=O)[C@H](CC(N)=O)NC1=O)[C@@H](C)O`, the helicity was found to be 18%.
The result for `CC[C@H](C)[C@@H]1NC(=O)[C@H](NC(=O)[C@@H](N)CCC(=O)O)CNC(=O)CSCc2cccc(c2)CSCC(=O)NC[C@@H](C(=O)N[C@@H](Cc2c[nH]cn2)C(=O)O)NC(=O)[C@H](CC(=O)O)NC(=O)[C@H](CC(C)C)NC1=O` (H-E[dDap]ILD[Dap]H-OH; linker 2-6 via Benzene(1,3-(CH2SCH2CO)2)) reads 13%; that for `CC[C@H](C)[C@@H]1NC(=O)[C@@H](NC(=O)[C@@H](N)CCC(=O)O)CNC(=O)CSCc2cccc(c2)CSCC(=O)NC[C@H](C(=O)N[C@@H](Cc2c[nH]cn2)C(=O)O)NC(=O)[C@H](CC(=O)O)NC(=O)[C@H](CC(C)C)NC1=O` (H-E[Dap]ILD[dDap]H-OH; linker 2-6 via Benzene(1,3-(CH2SCH2CO)2)), 39%; that for `CC[C@H](C)[C@@H]1NC(=O)[C@@H](NC(=O)[C@H](CCC(=O)O)NC(=O)[C@@H]2CCCN2C(=O)[C@H](CC(N)=O)NC(=O)[C@H](CCC(=O)O)NC(C)=O)CNC(=O)CSCc2cccc(c2)CSCC(=O)NC[C@H](C(=O)N[C@@H](Cc2c[nH]cn2)C(=O)N[C@H](C(=O)N[C@@H](CCC(N)=O)C(=O)N[C@@H](CCCNC(=N)N)C(=O)N[C@H](C(=O)N[C@@H](CCSC)C(N)=O)C(C)C)C(C)C)NC(=O)[C@H](CC(=O)O)NC(=O)[C@H](CC(C)C)NC1=O`, 44%.
The result for `CC[C@H](C)[C@@H]1NC(=O)[C@@H](NC(=O)[C@H](CCC(=O)O)NC(=O)[C@@H]2CCCN2C(=O)[C@H](CC(N)=O)NC(=O)[C@H](CCC(=O)O)NC(C)=O)CNC(=O)CSCCCCCCCSCC(=O)NC[C@@H](C(=O)N[C@@H](Cc2c[nH]cn2)C(=O)N[C@H](C(=O)N[C@@H](CCC(N)=O)C(=O)N[C@@H](CCCNC(=N)N)C(=O)N[C@H](C(=O)N[C@@H](CCSC)C(N)=O)C(C)C)C(C)C)NC(=O)[C@H](CC(=O)O)NC(=O)[C@H](CC(C)C)NC1=O` (Ac-ENPE[Dap]ILD[Dap]HVQRVM-NH2; linker 5-9 via X2) reads 18%; that for `CC[C@H](C)[C@@H]1NC(=O)[C@@H](NC(=O)[C@H](CCC(=O)O)NC(=O)[C@@H]2CCCN2C(=O)[C@H](CC(N)=O)NC(=O)[C@H](CCC(=O)O)NC(C)=O)CNC(=O)CSCCCCCCSCC(=O)NC[C@@H](C(=O)N[C@@H](Cc2c[nH]cn2)C(=O)N[C@H](C(=O)N[C@@H](CCC(N)=O)C(=O)N[C@@H](CCCNC(=N)N)C(=O)N[C@H](C(=O)N[C@@H](CCSC)C(N)=O)C(C)C)C(C)C)NC(=O)[C@H](CC(=O)O)NC(=O)[C@H](CC(C)C)NC1=O` (Ac-ENPE[Dap]ILD[Dap]HVQRVM-NH2; linker 5-9 via X1), 29%.
The result for `CC[C@H](C)[C@@H]1NC(=O)[C@@H](NC(=O)[C@H](CCC(=O)O)NC(=O)[C@@H]2CCCN2C(=O)[C@H](CC(N)=O)NC(=O)[C@H](CCC(=O)O)NC(C)=O)CNC(=O)CSCCCCCCCCSCC(=O)NC[C@H](C(=O)N[C@@H](Cc2c[nH]cn2)C(=O)N[C@H](C(=O)N[C@@H](CCC(N)=O)C(=O)N[C@@H](CCCNC(=N)N)C(=O)N[C@H](C(=O)N[C@@H](CCSC)C(N)=O)C(C)C)C(C)C)NC(=O)[C@H](CC(=O)O)NC(=O)[C@H](CC(C)C)NC1=O` (Ac-ENPE[Dap]ILD[dDap]HVQRVM-NH2; linker 5-9 via X3) reads 14%; that for `CC[C@H](C)[C@@H]1NC(=O)[C@@H](NC(=O)[C@@H](N)CCC(=O)O)CNC(=O)CSCc2cccc(c2)CSCC(=O)NC[C@@H](C(=O)N[C@@H](Cc2c[nH]cn2)C(=O)O)NC(=O)[C@H](CC(=O)O)NC(=O)[C@H](CC(C)C)NC1=O` (H-E[Dap]ILD[Dap]H-OH; linker 2-6 via Benzene(1,3-(CH2SCH2CO)2)), 41%.
Regarding `CC[C@H](C)[C@@H]1NC(=O)[C@H](NC(=O)[C@H](CCC(=O)O)NC(=O)[C@@H]2CCCN2C(=O)[C@H](CC(N)=O)NC(=O)[C@H](CCC(=O)O)NC(C)=O)CNC(=O)CSCCCCCCCSCC(=O)NC[C@H](C(=O)N[C@@H](Cc2c[nH]cn2)C(=O)N[C@H](C(=O)N[C@@H](CCC(N)=O)C(=O)N[C@@H](CCCNC(=N)N)C(=O)N[C@H](C(=O)N[C@@H](CCSC)C(N)=O)C(C)C)C(C)C)NC(=O)[C@H](CC(=O)O)NC(=O)[C@H](CC(C)C)NC1=O` (Ac-ENPE[dDap]ILD[dDap]HVQRVM-NH2; linker 5-9 via X2), the helicity was 31%.
The result for `CC[C@H](C)[C@@H]1NC(=O)[C@@H](NC(=O)[C@H](CCC(=O)O)NC(=O)[C@@H]2CCCN2C(=O)[C@H](CC(N)=O)NC(=O)[C@H](CCC(=O)O)NC(C)=O)CNC(=O)CSCCCCCSCC(=O)NC[C@@H](C(=O)N[C@@H](Cc2c[nH]cn2)C(=O)N[C@H](C(=O)N[C@@H](CCC(N)=O)C(=O)N[C@@H](CCCNC(=N)N)C(=O)N[C@H](C(=O)N[C@@H](CCSC)C(N)=O)C(C)C)C(C)C)NC(=O)[C@H](CC(=O)O)NC(=O)[C@H](CC(C)C)NC1=O` (Ac-ENPE[Dap]ILD[Dap]HVQRVM-NH2; linker 5-9 via X4) reads 24%; that for `CC[C@H](C)[C@@H]1NC(=O)[C@H](NC(=O)[C@H](CCC(=O)O)NC(=O)[C@@H]2CCCN2C(=O)[C@H](CC(N)=O)NC(=O)[C@H](CCC(=O)O)NC(C)=O)CNC(=O)CSCc2ccc(cc2)CSCC(=O)NC[C@H](C(=O)N[C@@H](Cc2c[nH]cn2)C(=O)N[C@H](C(=O)N[C@@H](CCC(N)=O)C(=O)N[C@@H](CCCNC(=N)N)C(=O)N[C@H](C(=O)N[C@@H](CCSC)C(N)=O)C(C)C)C(C)C)NC(=O)[C@H](CC(=O)O)NC(=O)[C@H](CC(C)C)NC1=O`, 19%.
`CC[C@H](C)[C@@H]1NC(=O)[C@@H](NC(=O)[C@H](CCC(=O)O)NC(=O)[C@@H]2CCCN2C(=O)[C@H](CC(N)=O)NC(=O)[C@H](CCC(=O)O)NC(C)=O)CNC(=O)CSCc2cccc(c2)CSCC(=O)NC[C@@H](C(=O)N[C@@H](Cc2c[nH]cn2)C(=O)N[C@H](C(=O)N[C@@H](CCC(N)=O)C(=O)N[C@@H](CCCNC(=N)N)C(=O)N[C@H](C(=O)N[C@@H](CCSC)C(N)=O)C(C)C)C(C)C)NC(=O)[C@H](CC(=O)O)NC(=O)[C@H](CC(C)C)NC1=O`: the helicity was determined as 46%.
The result for `CC[C@H](C)[C@@H]1NC(=O)[C@H](NC(=O)[C@H](CCC(=O)O)NC(=O)[C@@H]2CCCN2C(=O)[C@H](CC(N)=O)NC(=O)[C@H](CCC(=O)O)NC(C)=O)CNC(=O)CSCCCCCSCC(=O)NC[C@H](C(=O)N[C@@H](Cc2c[nH]cn2)C(=O)N[C@H](C(=O)N[C@@H](CCC(N)=O)C(=O)N[C@@H](CCCNC(=N)N)C(=O)N[C@H](C(=O)N[C@@H](CCSC)C(N)=O)C(C)C)C(C)C)NC(=O)[C@H](CC(=O)O)NC(=O)[C@H](CC(C)C)NC1=O` (Ac-ENPE[dDap]ILD[dDap]HVQRVM-NH2; linker 5-9 via X4) reads 14%; that for `CC(=O)N[C@@H](CCC(N)=O)C(=O)N[C@@H](CO)C(=O)N[C@@H](CCC(N)=O)C(=O)N[C@@H](CCC(N)=O)C(=O)N[C@H](C(=O)N[C@@H](Cc1ccccc1)C(=O)N[C@H]1CNC(=O)CSCc2ccc(cc2)-c2ccc(cc2)CSCC(=O)NC[C@@H](C(=O)N[C@@H](CCC(N)=O)C(=O)N[C@@H](CC(N)=O)C(N)=O)NC(=O)[C@H](CC(C)C)NC(=O)[C@H](CC(C)C)NC(=O)[C@H](CCCNC(=N)N)NC(=O)[C@H](Cc2c[nH]c3ccccc23)NC(=O)[C@H](CC(C)C)NC(=O)[C@H](CC(N)=O)NC1=O)[C@@H](C)O`, 16%; that for `CC[C@H](C)[C@@H]1NC(=O)[C@H](NC(=O)[C@H](CCC(=O)O)NC(=O)[C@@H]2CCCN2C(=O)[C@H](CC(N)=O)NC(=O)[C@H](CCC(=O)O)NC(C)=O)CNC(=O)CSCc2cccc(c2)CSCC(=O)NC[C@H](C(=O)N[C@@H](Cc2c[nH]cn2)C(=O)N[C@H](C(=O)N[C@@H](CCC(N)=O)C(=O)N[C@@H](CCCNC(=N)N)C(=O)N[C@H](C(=O)N[C@@H](CCSC)C(N)=O)C(C)C)C(C)C)NC(=O)[C@H](CC(=O)O)NC(=O)[C@H](CC(C)C)NC1=O`, 13%.
The result for `CC[C@H](C)[C@@H]1NC(=O)[C@@H](NC(=O)[C@H](CCC(=O)O)NC(=O)[C@@H]2CCCN2C(=O)[C@H](CC(N)=O)NC(=O)[C@H](CCC(=O)O)NC(C)=O)CNC(=O)CSCCCCCCCSCC(=O)NC[C@H](C(=O)N[C@@H](Cc2c[nH]cn2)C(=O)N[C@H](C(=O)N[C@@H](CCC(N)=O)C(=O)N[C@@H](CCCNC(=N)N)C(=O)N[C@H](C(=O)N[C@@H](CCSC)C(N)=O)C(C)C)C(C)C)NC(=O)[C@H](CC(=O)O)NC(=O)[C@H](CC(C)C)NC1=O` (Ac-ENPE[Dap]ILD[dDap]HVQRVM-NH2; linker 5-9 via X2) reads 25%; that for `CC[C@H](C)[C@@H]1NC(=O)[C@H](NC(=O)[C@H](CCC(=O)O)NC(=O)[C@@H]2CCCN2C(=O)[C@H](CC(N)=O)NC(=O)[C@H](CCC(=O)O)NC(C)=O)CNC(=O)CSCCCCCCSCC(=O)NC[C@H](C(=O)N[C@@H](Cc2c[nH]cn2)C(=O)N[C@H](C(=O)N[C@@H](CCC(N)=O)C(=O)N[C@@H](CCCNC(=N)N)C(=O)N[C@H](C(=O)N[C@@H](CCSC)C(N)=O)C(C)C)C(C)C)NC(=O)[C@H](CC(=O)O)NC(=O)[C@H](CC(C)C)NC1=O` (Ac-ENPE[dDap]ILD[dDap]HVQRVM-NH2; linker 5-9 via X1), 28%; that for `CC[C@H](C)[C@@H]1NC(=O)[C@H](NC(=O)[C@H](CCC(=O)O)NC(=O)[C@@H]2CCCN2C(=O)[C@H](CC(N)=O)NC(=O)[C@H](CCC(=O)O)NC(C)=O)CNC(=O)CSCCCCCCCCSCC(=O)NC[C@H](C(=O)N[C@@H](Cc2c[nH]cn2)C(=O)N[C@H](C(=O)N[C@@H](CCC(N)=O)C(=O)N[C@@H](CCCNC(=N)N)C(=O)N[C@H](C(=O)N[C@@H](CCSC)C(N)=O)C(C)C)C(C)C)NC(=O)[C@H](CC(=O)O)NC(=O)[C@H](CC(C)C)NC1=O` (Ac-ENPE[dDap]ILD[dDap]HVQRVM-NH2; linker 5-9 via X3), 25%.
